Results published in PMC10627149 (Nature structural & molecular biology, 2023).

Molecular target: T1, TSEN2 Y369A/H377A/K416A (endonuclease triple mutant in pCDNA3.1-TSEN2-Flag) (human, UniProt Q8NCE0 1-465, Y369A | H377A | K416A)
T1 sequence: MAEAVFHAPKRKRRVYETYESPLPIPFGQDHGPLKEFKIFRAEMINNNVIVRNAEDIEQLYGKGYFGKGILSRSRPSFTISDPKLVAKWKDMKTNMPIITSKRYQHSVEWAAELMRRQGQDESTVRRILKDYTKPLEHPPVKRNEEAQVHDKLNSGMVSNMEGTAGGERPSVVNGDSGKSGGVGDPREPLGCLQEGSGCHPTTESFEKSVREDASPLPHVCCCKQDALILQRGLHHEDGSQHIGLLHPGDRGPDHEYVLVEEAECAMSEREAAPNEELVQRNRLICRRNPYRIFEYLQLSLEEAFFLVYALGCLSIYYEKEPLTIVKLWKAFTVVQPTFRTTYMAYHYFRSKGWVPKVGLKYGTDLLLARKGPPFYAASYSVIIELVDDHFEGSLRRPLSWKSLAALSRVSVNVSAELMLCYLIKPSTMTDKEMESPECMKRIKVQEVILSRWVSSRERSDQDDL
Test: cryo-EM structure

binding result: binds
B1: TSEN15-Flag (pCDNA3.1-TSEN15-Flag) (natural protein, human)
chain: MEERGDSEPTPGCSGLGPGGVRGFGDGGGAPSWAPEDAWMGTHPKYLEMMELDIGDATQVYVAFLVYLDLMESKSWHEVNCVGLPELQLICLVGTEIEGEGLQTVVPTPITASLSHNRIREILKASRKLQGDPDLPMSFTLAIVESDSTIVYYKLTDGFMLPDPQNISLRR
